Data: patent US20220242953A1 (JIANGSU HENGRUI MEDICINE, published 2022)

Experiments:
[1] = molecular target: human CD3 on the cell surface (Jurkat recombinant cells; T cells of PBMC) (human, UniProt P07766 23-207; P04234 22-171); assay: FACS on Jurkat recombinant cells expressing CD3, APC anti-human IgG Fc detection, geometric mean fluorescence
Protocol: (§1) The ability of bispecific antibodies to bind to cell surface antigens was detected by FACS method.
(§2) FACS buffer (98% PBS, 2% FBS) was added into a 96-well U-shaped bottom plate (corning, 3795) to resuspend the cells, the serially diluted antibodies were added, incubated at 4° C. for 1 hour, and the plate was washed with FACS buffer twice. Then APC anti-human IgG Fc Antibody (biolegend, Cat #409306, dilution at 1:50) was added into each well, incubated at 4° C. for 30 minutes, washed twice, the cells were resuspended in FACS buffer, and finally the fluorescence signal values were read by FACS CantoII (BD).

[2] = molecular target: T1, human B7H3 on the cell surface (A498, CT26/hB7H3, U87, Detroit562 cells) (human, UniProt Q5ZPR3 29-534); assay: cell-based or functional assay
T1 sequence: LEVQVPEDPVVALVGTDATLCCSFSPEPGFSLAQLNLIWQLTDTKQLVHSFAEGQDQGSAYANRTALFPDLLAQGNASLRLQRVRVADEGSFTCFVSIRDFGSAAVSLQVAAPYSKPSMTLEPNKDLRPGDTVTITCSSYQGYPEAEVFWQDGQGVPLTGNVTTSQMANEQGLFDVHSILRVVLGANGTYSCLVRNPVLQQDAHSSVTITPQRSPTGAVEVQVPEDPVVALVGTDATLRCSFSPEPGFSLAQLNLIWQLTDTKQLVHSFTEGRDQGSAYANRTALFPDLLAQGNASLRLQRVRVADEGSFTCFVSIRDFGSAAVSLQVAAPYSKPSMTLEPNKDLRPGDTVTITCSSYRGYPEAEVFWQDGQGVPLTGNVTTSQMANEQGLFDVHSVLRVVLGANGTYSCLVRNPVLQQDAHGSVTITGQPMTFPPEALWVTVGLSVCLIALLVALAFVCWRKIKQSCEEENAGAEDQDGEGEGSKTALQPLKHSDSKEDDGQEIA

[3] = molecular target: T1, human B7H3 on the cell surface (A498, …); assay: FACS on A498 cells expressing human B7H3, APC anti-human IgG Fc detection, geometric mean fluorescence
Protocol: as §1, §2

[4] = molecular target: T2, Human CD3 antigen for detection (SinoBiological cat #CT038-H2508H); human CD3 epsilon-His and human CD3 … (human, UniProt P07766 23-126; P04234 22-105); assay: Biacore T200 SPR, bispecific antibody captured, CD3 antigen as analyte, 1:1 Langmuir fit
T2 construct: Bought antigen
Protocol: The detection of antibody affinity to B7H3 and CD3 was performed in the form of capture antibody. BsAb was captured by CM5 biosensor chip (Cat. #BR-1005-30, GE) or Protein A (Cat. #29127556, GE) biosensor chip coupled with Anti-Human IgG Antibody (Cat. #BR-1008-39, Lot. #10260416, GE), and then each antigen flowed through the surface of the chip. The reaction signals were detected in real time with the Biacore T200 instrument to obtain the binding and dissociation curves. After the dissociation of each experimental cycle was completed, the chip was washed and regenerated with regeneration buffer Glycine1.5 (Cat #BR100354, GE) or 3 M MgCl₂ (from Human antibody capture kit, Cat. #BR100839, GE). The data were fitted with the (1:1) Langmuir model using GE Biacore T200 Evaluation version 3.0 software, and the affinity values were obtained.

[5] = molecular target: T1, human B7H3 on the cell surface (A498, …); assay: FACS on CT26/hB7H3 cells over-expressing human B7H3, APC anti-human IgG Fc detection, geometric mean fluorescence
Protocol: as §1, §2

T2 sequence (P07766 other isoform, or with tags, fused parts or gaps H2508H H2508H, chain 1 of 2): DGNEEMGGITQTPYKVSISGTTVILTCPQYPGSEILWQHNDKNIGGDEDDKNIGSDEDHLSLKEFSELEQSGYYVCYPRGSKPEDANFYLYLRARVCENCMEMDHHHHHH
T2 sequence (P04234 other isoform, or with tags, fused parts or gaps H2508H H2508H, chain 2 of 2): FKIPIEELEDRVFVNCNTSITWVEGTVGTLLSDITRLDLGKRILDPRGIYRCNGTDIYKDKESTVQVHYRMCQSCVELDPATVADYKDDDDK
Chain of human CD3 on the cell surface (Jurkat recombinant cells; T cells of PBMC) (P07766 23-207, chain 1 of 2): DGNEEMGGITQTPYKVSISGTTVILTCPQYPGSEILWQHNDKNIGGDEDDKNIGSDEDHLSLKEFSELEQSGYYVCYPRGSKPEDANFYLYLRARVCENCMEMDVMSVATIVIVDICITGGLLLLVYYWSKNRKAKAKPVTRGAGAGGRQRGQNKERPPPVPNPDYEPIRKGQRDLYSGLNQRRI
Chain of human CD3 on the cell surface (Jurkat recombinant cells; T cells of PBMC) (P04234 22-171, chain 2 of 2): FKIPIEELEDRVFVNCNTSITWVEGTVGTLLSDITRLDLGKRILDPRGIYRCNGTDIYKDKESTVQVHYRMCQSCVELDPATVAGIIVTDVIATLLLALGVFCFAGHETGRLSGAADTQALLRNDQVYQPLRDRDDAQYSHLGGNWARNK

B1: NC1 (negative control bispecific antibody; B7H3 binding domain replaced with a non-related antibody, CD3 binding domain retained) (bispecific antibody)
chain 1: not shown
chain 2: DIQMTQSPSSVSASVGDRVTITCRASQDIANYLSWYQQKPGKSPKLLIYGTSNLEVGVPSRFSGSRSGTDFTLTISSLQPEDFATYYCLQDKEFPRTFGGGTKVEIKGGGGSGGGGSGGGGSEVQLVESGGGLVQPGGSLRLSCAASGFTFSHYYMAWVRQAPGKGLEWVTSISYEGDITYYGDSVKGRFTISRDNSKNTLYLQMNSLRAEDTATYYCASQTLRESFDYWGQGTLVTVSSGGGDKTHTCPPCPAPEAAGGPSVFLFPPKPKDTLMISRTPEVTCVVVDVSHEDPEVKFNWYVDGVEVHNAKTKPREEQYNSTYRVVSVLTVLHQDWLNGKEYKCKVSNKALPAPIEKTISKAKGQPREPQVCTLPPSREEMTKNQVSLSCAVKGFYPSDIAVEWESNGQPENNYKTTPPVLDSDGSFFLVSKLTVDKSRWQQGNVFSCSVMHEALHNHYTQKSLSLSPGK
notes: Control arm said to be an anti-fluorescein antibody; CD3 scFv with HRH-3
EC50 (read off the curve) [1]: ~0.07 µM | Emax (%), PBMC-mediated killing of A498 cells (B7H3 high) [2]: 20.9% | Emax (%), PBMC-mediated killing of Detroit562 cells (B7H3 low) [2]: 0.95% | Emax (%), PBMC-mediated killing of U87 cells (B7H3 intermediate) [2]: 3.8% | IC50 (nM), PBMC-mediated killing of A498 cells (B7H3 high) [2]: > 300 nM | IC50 (nM), PBMC-mediated killing of Detroit562 cells (B7H3 low) [2]: > 300 nM | IC50 (nM), PBMC-mediated killing of U87 cells (B7H3 intermediate) [2]: > 300 nM | binding result [3]: no binding (tested: about 5000 nM (log 3.7 on the axis))

B2: bispecific antibody 113 (AFF 3-2) (bispecific antibody)
chain 1: not shown
chain 2: QTVVTQEPSFSVSPGGTVTLTCGLSSGSVSTSHYPSWYQQTPGQAPRMLIYNTNTRSSGVPDRFSGSILGNKAALTITGAQADDESDYYCAIHVDRDIWVFGGGTKLTVLGGGGSGGGGSGGGGSQVQLVQSGGGVVQPGTSLRLSCAASGFIFSSSAMHWVRQAPGKGLEWVAVISYDGSNKYYVDSVKGRFTISRDNSKNTLYLQMNSLRAEDTAVYYCARSARLYASFDYWGQGALVTVSSGGGDKTHTCPPCPAPEAAGGPSVFLFPPKPKDTLMISRTPEVTCVVVDVSHEDPEVKFNWYVDGVEVHNAKTKPREEQYNSTYRVVSVLTVLHQDWLNGKEYKCKVSNKALPAPIEKTISKAKGQPREPQVCTLPPSREEMTKNQVSLSCAVKGFYPSDIAVEWESNGQPENNYKTTPPVLDSDGSFFLVSKLTVDKSRWQQGNVFSCSVMHEALHNHYTQKSLSLSPGK
notes: B7H3 bivalent CD3-B7H3 bispecific antibody, CD3 VH HRH-2
Kd [4]: 0.0772 µM

B3: NC2 (negative control bispecific antibody; B7H3 binding domain retained, CD3 binding domain replaced with a non-related antibody) (bispecific antibody)
chain 1: not shown
chain 2: QTVVTQEPSFSVSPGGTVTLTCGLSSGSVSTSHYPSWYQQTPGQAPRMLIYNTNTRSSGVPDRFSGSILGNKAALTITGAQADDESDYYCAIHVDRDIWVFGGGTKLTVLGGGGSGGGGSGGGGSQVQLVQSGGGVVQPGTSLRLSCAASGFIFSSSAMHWVRQAPGKGLEWVAVISYDGSNKYYVDSVKGRFTISRDNSKNTLYLQMNSLRAEDTAVYYCARSARLYASFDYWGQGALVTVSSGGGDKTHTCPPCPAPEAAGGPSVFLFPPKPKDTLMISRTPEVTCVVVDVSHEDPEVKFNWYVDGVEVHNAKTKPREEQYNSTYRVVSVLTVLHQDWLNGKEYKCKVSNKALPAPIEKTISKAKGQPREPQVCTLPPSREEMTKNQVSLSCAVKGFYPSDIAVEWESNGQPENNYKTTPPVLDSDGSFFLVSKLTVDKSRWQQGNVFSCSVMHEALHNHYTQKSLSLSPGK
notes: Control arm said to be anti-fluorescein
binding result [1]: no binding (tested: about 8000 nM (log 3.9 on the axis)) | EC50 (read off the curve) [5]: ~0.004 µM | EC50 (read off the curve) [3]: ~0.03 µM

B4: bispecific antibody 131 (AFF3-1) (bispecific antibody)
chain 1: not shown
chain 2: QTVVTQEPSFSVSPGGTVTLTCGLSSGSVSTSHYPSWYQQTPGQAPRMLIYNTNTRSSGVPDRFSGSILGNKAALTITGAQADDESDYYCAIHVDRDIWVFGGGTKLTVLGGGGSGGGGSGGGGSQVQLVQSGGGVVQPGTSLRLSCAASGFIFSSSAMHWVRQAPGKGLEWVAVISYDGSNKYYVDSVKGRFTISRDNSKNTLYLQMNSLRAEDTAVYYCARSARLYASFDYWGQGALVTVSSGGGDKTHTCPPCPAPEAAGGPSVFLFPPKPKDTLMISRTPEVTCVVVDVSHEDPEVKFNWYVDGVEVHNAKTKPREEQYNSTYRVVSVLTVLHQDWLNGKEYKCKVSNKALPAPIEKTISKAKGQPREPQVCTLPPSREEMTKNQVSLSCAVKGFYPSDIAVEWESNGQPENNYKTTPPVLDSDGSFFLVSKLTVDKSRWQQGNVFSCSVMHEALHNHYTQKSLSLSPGK
notes: B7H3 bivalent CD3-B7H3 bispecific antibody, CD3 VH HRH-1; two-chain knob/hole Fc format
Kd [4]: 0.0407 µM

B5: bispecific antibody 154 (AFF3-4) (bispecific antibody)
chain 1: not shown
chain 2: QTVVTQEPSFSVSPGGTVTLTCGLSSGSVSTSHYPSWYQQTPGQAPRMLIYNTNTRSSGVPDRFSGSILGNKAALTITGAQADDESDYYCAIHVDRDIWVFGGGTKLTVLGGGGSGGGGSGGGGSQVQLVQSGGGVVQPGTSLRLSCAASGFIFSSSAMHWVRQAPGKGLEWVAVISYDGSNKYYVDSVKGRFTISRDNSKNTLYLQMNSLRAEDTAVYYCARSARLYASFDYWGQGALVTVSSGGGDKTHTCPPCPAPEAAGGPSVFLFPPKPKDTLMISRTPEVTCVVVDVSHEDPEVKFNWYVDGVEVHNAKTKPREEQYNSTYRVVSVLTVLHQDWLNGKEYKCKVSNKALPAPIEKTISKAKGQPREPQVCTLPPSREEMTKNQVSLSCAVKGFYPSDIAVEWESNGQPENNYKTTPPVLDSDGSFFLVSKLTVDKSRWQQGNVFSCSVMHEALHNHYTQKSLSLSPGK
notes: B7H3 bivalent CD3-B7H3 bispecific antibody, CD3 VH HRH-4
Kd [4]: 0.0697 µM

B6: bispecific antibody 177 (AFF3-7) (bispecific antibody)
chain 1: not shown
chain 2: QTVVTQEPSFSVSPGGTVTLTCGLSSGSVSTSHYPSWYQQTPGQAPRMLIYNTNTRSSGVPDRFSGSILGNKAALTITGAQADDESDYYCAIHVDRDIWVFGGGTKLTVLGGGGSGGGGSGGGGSQVQLVQSGGGVVQPGTSLRLSCAASGFIFSSSAMHWVRQAPGKGLEWVAVISYDGSNKYYVDSVKGRFTISRDNSKNTLYLQMNSLRAEDTAVYYCARSARLYASFDYWGQGALVTVSSGGGDKTHTCPPCPAPEAAGGPSVFLFPPKPKDTLMISRTPEVTCVVVDVSHEDPEVKFNWYVDGVEVHNAKTKPREEQYNSTYRVVSVLTVLHQDWLNGKEYKCKVSNKALPAPIEKTISKAKGQPREPQVCTLPPSREEMTKNQVSLSCAVKGFYPSDIAVEWESNGQPENNYKTTPPVLDSDGSFFLVSKLTVDKSRWQQGNVFSCSVMHEALHNHYTQKSLSLSPGK
notes: B7H3 bivalent CD3-B7H3 bispecific antibody, CD3 VH HRH-7
Kd [4]: 0.162 µM
